Laboratory results: patent US20190322748A1

How the values were obtained:
[1] = biological target: Tim3-ECD-His-Biotin (human) (UniProt Q8TDQ0); assay: ELISA on human Tim3
[2] = biological target: full-length human Tim3 on cells (CHO-K1 stably transfected with plasmid 15312_hTIM3-fl_pUC_Neo) (human) (UniProt Q8TDQ0); assay: cell-based or functional assay
[3] = biological target: monomeric cyno Tim3-ECD (cynomolgus); assay: ELISA on cynomolgus Tim3
[4] = biological target: full-length human Tim3 on cells (CHO-K1 stably transfected with plasmid 15312_hTIM3-fl_pUC_Neo) (human) (UniProt Q8TDQ0); assay: cellular ELISA on CHO-TIM3
[5] = biological target: monomeric cyno Tim3-ECD (cynomolgus); assay: SPR BIAcore B4000, Ab captured on anti-mouse IgG, 25 C
[6] = biological target: monomeric human Tim3-ECD (human) (UniProt Q8TDQ0); assay: as above
[7] = biological target: Tim3-ECD-His-Biotin (human) (UniProt Q8TDQ0); assay: ELISA on human Tim3 (values in relation to the samples max value)
[8] = biological target: monomeric cyno Tim3-ECD (cynomolgus); assay: ELISA on cynomolgus Tim3 (values in relation to the samples max value)
[9] = biological target: full-length human Tim3 on cells (CHO-K1 stably transfected with plasmid 15312_hTIM3-fl_pUC_Neo) (human) (UniProt Q8TDQ0); assay: cellular ELISA on CHO-TIM3 (values in relation to the samples max value)
[10] = biological target: huFc fused dimeric human Tim3-ECD (human) (UniProt Q8TDQ0); assay: SPR BIAcore B4000, Ab captured on anti-mouse IgG, 25 C, dimeric antigen (avidity)

Reference antibody Biolegend F38-2E2
Inflexion point [1]: 88.3 ng/mL
IFN-gamma release in MLR at 1 µg/ml antibody, % of rec hu IL-2 (20 EU/ml) = 100% [2]: 7%
IFN-gamma release in MLR at 10 µg/ml antibody, % of rec hu IL-2 (20 EU/ml) = 100% [2]: 26%
IFN-gamma release in MLR at 40 µg/ml antibody, % of rec hu IL-2 (20 EU/ml) = 100% [2]: 36%
Inflexion point [3]: 210000 ng/mL
Inflexion point [4]: 224 ng/mL
Kd [5]: 168 nM
Kd [6]: 13.6 nM
EC50 [7]: 0.0732 µg/mL
EC50 [8]: 0.423 µg/mL
EC50 [9]: 0.15 µg/mL
Kd [10]: 7.5 nM
